The results in this text go back to patent publication US20190225692A1 (JUNO THERAPEUTICS, published 2019).

Experiment [1] addresses HPV 16 E7(11-19) peptide in the context of HLA-A02:01 on target cells (human; HPV 16). Nature of the experiment: cell-based or functional assay.
In experiment [2] the target is HPV 16 E6(29-38) peptide in the context of HLA-A02:01 on target cells (human; HPV 16). Nature of the experiment: cell-based or functional assay.
The target of experiment [3] is T1, HLA-A2/E6 (29-38) tetramer (human; HPV 16).
T1 construct: also called E6(29-38) peptide-MHC tetramer; E6(29-38)-loaded tetramer
The experiment can be described thus: tetramer flow cytometry; transfected Jurkat-derived cells, CD8+ population.
Experimental: For transfection, the CD4+ and CD4+/CD8+ cell mixtures were transiently transfected with TCR-encoding plasmids and 48 hours after transfection, cells were assessed by flow cytometry for (1) binding of the target peptide in the context of an MHC molecule (HLA:A02:01) by staining with an E6(29-38) peptide- or an E7(11-19) peptide-MHC tetramer reagent, and/or (2) CD8+ independent binding of the target by co-staining the tetramer-labeled cells with an anti-CD8 antibody.

In experiment [4] the target is T1, HLA-A2/E6 (29-38) tetramer. Nature of the experiment: tetramer staining of clonal T cell line, flow cytometry.

B1: modified version of TCR 8 (codon optimized, cysteine modified) (TCR, V domains shown)
V domain 1: KQEVTQIPAALSVPEGENLVLNCSFTDSAIYNLQWFRQDPGKGLTSLLLIQSSQREQTSGRLNASLDKSSGRSTLYIAASQPGDSATYLCAVRPLGNTPLVFGKGTRLSVIA
V domain 2: KVTQSSRYLVKRTGEKVFLECVQDMDHENMFWYRQDPGLGLRLIYFSYDVKMKEKGDIPEGYSVSREKKERFSLILESASTNQTSMYLCASSLWGASTDTQYFGPGTRLTVLE
For the molecule B1, the “% CD8+/IC IFNγ+; transduced primary CD8+ T cells with T2 cells pulsed with 10 uM E7(11-19) peptide (control peptide), E:T 10:1, 4 h” value in experiment [1] worked out at 11.4%. The “% CD8+/IC IFNγ+; transduced primary CD8+ T cells with T2 cells pulsed with 10 uM E6(29-38) peptide, E:T 10:1, 4 h” value in experiment [2] came out at 95%.

B2: modified version of TCR 5 (codon optimized, cysteine modified) (TCR, V domains shown)
V domain 1: AQKITQTQPGMFVQEKEAVTLDCTYDTSDQSYGLFWYKQPSSGEMIFLIYQGSYDEQNATEGRYSLNFQKARKSANLVISASQLGDSAMYFCAMREGTGTSYGKLTFGQGTILTVHP
V domain 2: DVKVTQSSRYLVKRTGEKVFLECVQDMDHENMFWYRQDPGLGLRLIYFSYDVKMKEKGDIPEGYSVSREKKERFSLILESASTNQTSMYLCASSPWGETHQPQHFGDGTRLSILE
Take B2: the “% CD8+/IC IFNγ+; transduced primary CD8+ T cells with T2 cells pulsed with 10 uM E7(11-19) peptide (control peptide), E:T 10:1, 4 h” value in experiment [1] was 7.22%. For the same molecule, the “% CD8+/IC IFNγ+; transduced primary CD8+ T cells with T2 cells pulsed with 10 uM E6(29-38) peptide, E:T 10:1, 4 h” value in experiment [2] was found to be 43.7%.

B3: modified version of TCR 9 (codon optimized, cysteine modified) (TCR)
TCR alpha: AQKITQTQPGMFVQEKEAVTLDCTYDTSDPSYGLFWYKQPSSGEMIFLIYQGSYDQQNATEGRYSLNFQKARKSANLVISASQLGDSAMYFCAMRTAGGTSYGKLTFGQGTILTVHPNIQNPDPAVYQLRDSKSSDKSVCLFTDFDSQTNVSQSKDSDVYITDKCVLDMRSMDFKSNSAVAWSNKSDFACANAFNNSIIPEDTFFPSPESSCDVKLVEKSFETDTNLNFQNLSVIGFRILLLKVAGFNLLMTLRLWSS
TCR beta: NAGVTQTPKFRVLKTGQSMTLLCAQDMNHEYMYWYRQDPGMGLRLIHYSVGEGTTAKGEVPDGYNVSRLKKQNFLLGLESAAPSQTSVYFCASSYFGTAYEQYFGPGTRLTVTEDLKNVFPPEVAVFEPSEAEISHTQKATLVCLATGFYPDHVELSWWVNGKEVHSGVCTDPQPLKEQPALNDSRYCLSSRLRVSATFWQNPRNHFRCQVQFYGLSENDEWTQDRAKPVTQIVSAEAWGRADCGFTSESYQQGVLSATILYEILLGKATLYAVLVSALVLMAMVKRKDSRG
With B3, in experiment [3], the “% cells in E6 tet+/CD8+ quadrant” value was determined as 42.5%, the “% cells in E6 tet+/CD8- quadrant” value amounted to 0.051%, the “% cells in E6 tet-/CD8+ quadrant” value amounted to 55.6% and the “% cells in E6 tet-/CD8- quadrant” value was 1.89%. Besides, in experiment [1], the “% CD8+/IC IFNγ+; transduced primary CD8+ T cells with T2 cells pulsed with 10 uM E7(11-19) peptide (control peptide), E:T 10:1, 4 h” value was 19.5%. For the same molecule, the “% CD8+/IC IFNγ+; transduced primary CD8+ T cells with T2 cells pulsed with 10 uM E6(29-38) peptide, E:T 10:1, 4 h” value in experiment [2] was 91.1%.

B4: modified version of TCR 4 (codon optimized, cysteine modified) (TCR)
TCR alpha: DAKTTQPNSMESNEEEPVHLPCNHSTISGTDYIHWYRQLPSQGPEYVIHGLTSNVNNRMASLAIAEDRKSSTLILHRATLRDAAVYYCILLVIRGTSYGKLTFGQGTILTVHPNIQNPDPAVYQLRDSKSSDKSVCLFTDFDSQTNVSQSKDSDVYITDKCVLDMRSMDFKSNSAVAWSNKSDFACANAFNNSIIPEDTFFPSPESSCDVKLVEKSFETDTNLNFQNLSVIGFRILLLKVAGFNLLMTLRLWSS
TCR beta: DTGVSQDPRHKITKRGQNVTFRCDPISEHNRLYWYRQTLGQGPEFLTYFQNEAQLEKSRLLSDRFSAERPKGSFSTLEIQRTEQGDSAMYLCASSPGGGNTEAFFGQGTRLTVVEDLNKVFPPEVAVFEPSEAEISHTQKATLVCLATGFFPDHVELSWWVNGKEVHSGVCTDPQPLKEQPALNDSRYCLSSRLRVSATFWQNPRNHFRCQVQFYGLSENDEWTQDRAKPVTQIVSAEAWGRADCGFTSVSYQQGVLSATILYEILLGKATLYAVLVSALVLMAMVKRKDF
In the case of B4, in experiment [1], the “% CD8+/IC IFNγ+; transduced primary CD8+ T cells with T2 cells pulsed with 10 uM E7(11-19) peptide (control peptide), E:T 10:1, 4 h” value turned out to be 2.5%. Moreover, the “% CD8+/IC IFNγ+; transduced primary CD8+ T cells with T2 cells pulsed with 10 uM E6(29-38) peptide, E:T 10:1, 4 h” value in experiment [2] stood at 94.2%.

B5: modified version of TCR 3 (codon optimized, cysteine modified) (TCR)
TCR alpha: AQKITQTQPGMFVQEKEAVTLDCTYDTSDQSYGLFWYKQPSSGEMIFLIYQGSYDEQNATEGRYSLNFQKARKSANLVISASQLGDSAMYFCAMREGRGFKTIFGAGTRLFVKANIQKPDPAVYQLRDSKSSDKSVCLFTDFDSQTNVSQSKDSDVYITDKCVLDMRSMDFKSNSAVAWSNKSDFACANAFNNSIIPADTFFPSPESSCDVKLVEKSFETDTNLNFQNLSVIGFRILLLKVAGFNLLMTLRLWSS
TCR beta: GAGVSQSPRYKVAKRGQDVALRCDPISGHVSLFWYQQALGQGPEFLTYFQNEAQLDKSGLPSDRFFAERPEGSVSTLKIQRTQQEDSAVYLCASSHLAGFTGELFFGEGSRLTVLEDLKNVFPPEVAVFEPSEAEISHTQKATLVCLATGFYPDHVELSWWVNGKEVHSGVCTDPQPLKEQPALNDSRYCLSSRLRVSATFWQNPRNHFRCQVQFYGLSENDEWTQDRAKPVTQIVSAEAWGRADCGFTSESYQQGVLSATILYEILLGKATLYAVLVSALVLMAMVKRKDSRG
For the molecule B5, the “% CD8+/IC IFNγ+; transduced primary CD8+ T cells with T2 cells pulsed with 10 uM E7(11-19) peptide (control peptide), E:T 10:1, 4 h” value in experiment [1] stood at 2.51%. Also, the “% CD8+/IC IFNγ+; transduced primary CD8+ T cells with T2 cells pulsed with 10 uM E6(29-38) peptide, E:T 10:1, 4 h” value in experiment [2] was 95.1%.

B6: TCR 10 (native, expressed by clonal T cell line) (TCR, V domains shown)
V domain 1: RKEVEQDPGPFNVPEGATVAFNCTYSNSASQSFFWYRQDCRKEPKLLMSVYSSGNEDGRFTAQLNRASQYISLLIRDSKLSDSATYLCVVNFPSRGAGGTSYGKLTFGQGTILTVHP
V domain 2: DVKVTQSSRYLVKRTGEKVFLECVQDMDHENMFWYRQDPGLGLRLIYFSYDVKMKEKGDIPEGYSVSREKKERFSLILESASTNQTSMYLCASSLSLTGNYGYTFGSGTRLTVVE
For B6, in experiment [4], the binding result is “binds”.
